In general, stoichiometry N refers to a count of units in the complex or per binding partner.

One data set has as its target T1, HP0221-T25 (NifU) (Helicobacter pylori strain 26695, UniProt O25009 2-326).
T1 sequence (looked up): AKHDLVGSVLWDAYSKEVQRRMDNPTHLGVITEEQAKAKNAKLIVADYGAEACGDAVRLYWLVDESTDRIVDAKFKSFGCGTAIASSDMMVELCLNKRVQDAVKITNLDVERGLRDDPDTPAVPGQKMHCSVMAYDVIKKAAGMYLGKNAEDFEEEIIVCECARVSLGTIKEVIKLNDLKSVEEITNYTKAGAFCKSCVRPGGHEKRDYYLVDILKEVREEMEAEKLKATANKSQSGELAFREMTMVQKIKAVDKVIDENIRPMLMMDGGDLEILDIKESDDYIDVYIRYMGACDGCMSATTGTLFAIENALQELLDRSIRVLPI
The data set is described as follows: two-hybrid.

The target in the next data set is T25-HP0220 (NifS) (Helicobacter pylori strain 26695, UniProt O25008 2-387). Put plainly: two-hybrid.
A further data set concerns the target T2, T25-HP1492 (Nfu) (Helicobacter pylori strain 26695, UniProt O26025 2-89).
T2 sequence (looked up): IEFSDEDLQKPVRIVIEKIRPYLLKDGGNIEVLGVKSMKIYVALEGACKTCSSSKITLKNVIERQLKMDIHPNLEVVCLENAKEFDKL
Put plainly: two-hybrid.

In another data set the target is T3, T25-HP0221 (NifU) (Helicobacter pylori strain 26695, UniProt O25009 2-326).
T3 sequence (looked up): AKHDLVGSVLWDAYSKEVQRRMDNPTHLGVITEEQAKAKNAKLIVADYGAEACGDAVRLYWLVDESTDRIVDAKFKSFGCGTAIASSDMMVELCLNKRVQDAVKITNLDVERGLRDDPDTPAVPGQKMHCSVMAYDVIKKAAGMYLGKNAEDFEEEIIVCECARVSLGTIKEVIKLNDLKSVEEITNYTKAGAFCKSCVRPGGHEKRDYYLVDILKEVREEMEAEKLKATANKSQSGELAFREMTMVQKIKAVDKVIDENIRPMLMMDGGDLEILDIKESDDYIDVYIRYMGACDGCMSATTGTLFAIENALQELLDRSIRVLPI
The data set is described as follows: two-hybrid.

The data set “SEC” concerns the molecule itself. The data set is described as follows: SEC. For orientation: SEC sorts molecules by how far they enter the pores of the column.

Where “and” joins values, the source holds several entries; their conditions need not be identical. Equal values may be shown once.

B1: T18-HP0220 (natural protein, Helicobacter pylori strain 26695, UniProt O25008 2-387, looked up)
chain: LQRIYLDNNATTRIDPKVKEIMDPFLRDHYGNPSSLHQFGTETHPAIAEALDKLYKGINARDIDDVIITSCATESNNWVLKGVYFDECLKKGKNHIVTTVAEHPAVRSTCNFLESLGVEVTYLPINEHGSITAEQVKEAITEKTALVSVMWANNETGLIFPIEEIGAICKEKGVLFHTDAVQAIGKIPVDVLKANADFLSFSAHKFHGPKGIGGLYIRSGVGLTPLFHGGEHMNGRRSGTLNVPYIVGMGEAMKLAVEHLDYEKEVVGKLRDKLEEALLKIPDVMVVGDRIHRVPNTTLVSVRGIEGEAMLWDLNRSNIAASTGSACASEDLEANPVMVAIGASKELAHTAIRLSLSRFNTEAEIDKTIEVFSQAAVRLRNISSSY
Regarding B1, the “growth OD595 in M63-maltose” value in the data set with HP0221-T25 (NifU) amounted to 0.11 OD595; in the data set with T25-HP0220 (NifS) it was 0.29 OD595; with T25-HP1492 (Nfu), 0.22 OD595; with T25-HP0221 (NifU), 0.13 OD595.

B2: T18-HP0207 (natural protein, Helicobacter pylori strain 26695, UniProt O24999 2-368, looked up)
chain: LTQEDVLNALKTIIYPNFEKDIVSFGFVKNITLHDDQLGLLIEIPSSSEETSAILRENISKAMQEKGVKALNLDIKTPPKPQAPKPTTKNLAKNIKHVVMISSGKGGVGKSTTSVNLSIALANLNQKVGLLDADVYGPNIPRMMGLQSADVIMDPSGKKLIPLKAFGVSVMSMGLLYDEGQSLIWRGPMLMRAIEQMLSDIIWGDLDVLVVDMPPGTGDAQLTLAQAVPLSAGITVTTPQIVSLDDAKRSLDMFKKLHIPIAGIVENMGSFVCEHCKKESEIFGSNSMSELLEAYHTQILAKLPLEPKVRLGGDRGEPIVISHPNSVSAKIFEKMAQDLSAFLERVKKEKLADNKDIQPTQTHACSH
As for B2, the “growth OD595 in M63-maltose” value with HP0221-T25 (NifU) amounted to 0.13 OD595; with T25-HP0220 (NifS), 0.23 OD595; with T25-HP1492 (Nfu) it was 0.21 OD595; with T25-HP0221 (NifU), 0.14 OD595.

B3: NifS (purified recombinant) (enzyme, Helicobacter pylori strain 26695, UniProt O25008 1-387, looked up)
chain: MLQRIYLDNNATTRIDPKVKEIMDPFLRDHYGNPSSLHQFGTETHPAIAEALDKLYKGINARDIDDVIITSCATESNNWVLKGVYFDECLKKGKNHIVTTVAEHPAVRSTCNFLESLGVEVTYLPINEHGSITAEQVKEAITEKTALVSVMWANNETGLIFPIEEIGAICKEKGVLFHTDAVQAIGKIPVDVLKANADFLSFSAHKFHGPKGIGGLYIRSGVGLTPLFHGGEHMNGRRSGTLNVPYIVGMGEAMKLAVEHLDYEKEVVGKLRDKLEEALLKIPDVMVVGDRIHRVPNTTLVSVRGIEGEAMLWDLNRSNIAASTGSACASEDLEANPVMVAIGASKELAHTAIRLSLSRFNTEAEIDKTIEVFSQAAVRLRNISSSY
Regarding B3, the “stoichiometry N” value in “SEC” turned out to be 2.

B4: NifU (purified recombinant) (natural protein, Helicobacter pylori strain 26695, UniProt O25009 1-326, looked up)
chain: MAKHDLVGSVLWDAYSKEVQRRMDNPTHLGVITEEQAKAKNAKLIVADYGAEACGDAVRLYWLVDESTDRIVDAKFKSFGCGTAIASSDMMVELCLNKRVQDAVKITNLDVERGLRDDPDTPAVPGQKMHCSVMAYDVIKKAAGMYLGKNAEDFEEEIIVCECARVSLGTIKEVIKLNDLKSVEEITNYTKAGAFCKSCVRPGGHEKRDYYLVDILKEVREEMEAEKLKATANKSQSGELAFREMTMVQKIKAVDKVIDENIRPMLMMDGGDLEILDIKESDDYIDVYIRYMGACDGCMSATTGTLFAIENALQELLDRSIRVLPI
Consider B4, for which the “stoichiometry N” value in “SEC” stood at 2.

B5: Nfu (purified recombinant) (natural protein, Helicobacter pylori strain 26695, UniProt O26025 1-89, looked up)
chain: MIEFSDEDLQKPVRIVIEKIRPYLLKDGGNIEVLGVKSMKIYVALEGACKTCSSSKITLKNVIERQLKMDIHPNLEVVCLENAKEFDKL
For B5, the “stoichiometry N” value in “SEC” is 4 and 2.

B6: T18-HP1266 (natural protein, Helicobacter pylori strain 26695, UniProt O25856 2-844, looked up)
chain: ITMNINGKTIECQEGQSVLEAARSAGIYIPTICYLSGCSPTVACKMCMVEMDGKRVYSCNTKAKNNATILTNTPTLMDERKSIMQTYDVNHPLECGVCDKSGECELQDMTHLTGVEHQPYAVADDFKALDFWAKALYDPNLCIMCERCVTTCKDNVGENNLKATKADLHAPDKFKDSMSKDAFSVWSRKQKGIISFVGSVPCYDCGECIAVCPVGALSYKDFAYTANAWELKKIHSTCSHCSAGCLISYDVRHFDTLGEESKIFRVLNDFYHNPICGAGRFAFDVSSSPKGSANLKEAQNALKECEAVRIGGDITNEEAFLIERLRKELDFKIYNQEAYRFQQFLKVLGEIKRPSVEEIKTSHLVVTIGSSIKTENPLVRYAINNALKLNKASLIAMHPIKDNALANLCRSSFCITHEVGAEEILLGMLLKMLNIESAALKSLEDSKQNIVDEAALKALEEERKKALEQAEQGCSIGENKAENQEENKTEATTPKEENQEENKTEVKEEKIEVPTKTTYLLLEEAGINLETYEKILALLQKSNNTLLVVGEEIYSHKQAHNIAKMLRLLAQKSAIKLILIPPSANALGIASICQLSEEIFEHEKIVGIRAQGDFTINSDDRVFGKDAASKVDFILPSLNQLEGTITNIEGRVLPLKPALRFEGYDLSDIMQGFGFVEENLIECTHKLPTEAGFKAIEFDYLTNYFANDRVNHRGYLLGTSHFEKSAKECETIECEPIKPLKEKIAFNAYLKYPETQFNNATNKSENLQLKAGVYVSKAFLKKLNKEVGQNITLSKEEEELTGVLYLDESLDQEVFVISPSLLKNHSGFFREGVFDSVDLKEQA
On to B6, for which the “growth OD595 in M63-maltose” value was 0.16 OD595 with T25-HP0220 (NifS) and 0.24 OD595 in the data set with T25-HP1492 (Nfu).

Values taken from PMC5943153 (Molecular microbiology, 2018).
